Laboratory results from patent publication US20130095098A1 (UCB, published 2013).

Columns and labels:
[1] = molecular target: T1, human PD-1 (Programmed Death 1), full-length, expressed on transiently transfected HEK293 cells (human, UniProt Q15116 25-288); assay: flow cytometry on HEK293 cells transiently transfected with human PD-1; FITC mouse anti-human IgG secondary
T1 construct: whole, on cells; also called CD279; PDCD1
Protocol: (§1) HEK293 cells were transiently transfected by culturing at 5×10⁶/well with 5 μg human PD-1 DNA and 293 fectin (Invitrogen) overnight in 6 well plates. […] Cells were washed with PBS and incubated with an appropriate secondary antibody, either FITC Mouse anti Human IgG (05-4211 Zymed, 1:20 dilution) or rat anti Mouse IgG (04-6111 Zymed, 1:20 dilution) for 1 hr at 4° C. Flow cytometry analysis was performed on a FACSCalibur (Becton Dickinson).

[2] = molecular target: T1, human PD-1 (Programmed Death 1), …; assay: flow cytometry on HEK293 cells transiently transfected with human PD-1; rat anti-mouse IgG secondary
Protocol: as §1

T1 sequence (Q15116 25-288): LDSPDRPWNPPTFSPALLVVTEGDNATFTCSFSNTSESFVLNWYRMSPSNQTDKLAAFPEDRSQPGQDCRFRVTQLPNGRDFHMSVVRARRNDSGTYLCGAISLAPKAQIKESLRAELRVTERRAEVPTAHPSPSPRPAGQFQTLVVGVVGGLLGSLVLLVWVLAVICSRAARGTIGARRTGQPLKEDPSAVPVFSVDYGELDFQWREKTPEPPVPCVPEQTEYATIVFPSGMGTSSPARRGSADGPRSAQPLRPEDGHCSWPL

B1: 948.g1 (948 humanised graft; gL1 light chain, g1 heavy chain, human gamma-4 S241P / human kappa) (antibody, human IgG4 S228P, kappa, V domains shown)
VH: EVQLQESGPGLVKPSQTLSLTCTVTGYSITSDYAWNWIRQPPGKKLEWMGYINYSGSTSYNPSLKSRVTISRDTSKNQFSLKLSSVTAADTAVYYCARWIGSSAWYFDVWGQGTLVTVSS
VL: DVLMTQTPLSLSVTPGQPASISCRSGQNIVHSNGNTYLEWYLQKPGQSPKLLIYKVSNRFFGVPDRISGSGSGTDFTLKISRVEAEDVGVYFCFQGSHVPFTFGQGTKLEIKR
Question: Does B1 bind [1]?
Answer: Result: binds

B2: antibody CA051-00948 (948 murine parental; cloned recombinant antibody derived from hybridoma Clone 10) (antibody, IgG1, V domains shown)
VH: DVQLQESGPGLVKPSQSLSLTCTVTGYSITSDYAWNWIRQFPGNKLEWMGYINYSGSTSYNPSLKSRISITRDTSKNQFFLQLNSVTTEDTATYYCARWIGSSAWYFDVWGAGTTVTVS
VL: DVLMTQTPLSLPVSLGDQASISCRSGQNIVHSNGNTYLEWYLQKPGQSPKLLIYKVSNRFFGVPDRISGSGSGTDFTLKISRVEAEDLGVYFCFQGSHVPFTFGSGTKLEIK
notes: also called Ab948
Question: Does B2 bind [2]?
Answer: Result: binds
